From patent publication EP4261227A1 come the findings set out here.

The target in this experiment is OXA-48-like carbapenemase (Klebsiella pneumoniae) (UniProt Q6XEC0). Nature of the experiment: indirect ELISA, plate coated with 0.2 ug/mL OXA-48-like carbapenemase, purified antibody in doubling dilutions from 1:1000. Background: An ELISA detects its analyte on a solid surface through an enzyme-linked reagent.
UniProt Q6XEC0, sequence (Q6XEC0 23-265 limits assumed): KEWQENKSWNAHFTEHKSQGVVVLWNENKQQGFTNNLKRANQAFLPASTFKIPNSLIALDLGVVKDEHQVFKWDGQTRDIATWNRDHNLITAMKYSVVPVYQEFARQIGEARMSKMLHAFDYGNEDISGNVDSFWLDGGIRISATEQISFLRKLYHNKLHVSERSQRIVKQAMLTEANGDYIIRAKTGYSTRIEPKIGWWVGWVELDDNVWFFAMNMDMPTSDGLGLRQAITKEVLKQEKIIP

B1: anti-OXA-48-like carbapenemase mouse mAb IB5 (antibody, V domains shown)
VH: EVMLVESGGGLVKPGGSLKLSCAASGFTFSTYAMSWVRLTPEKRLEWVATISSGGSYTSYPDSVKGRFTISRDNAKNTLYLQMSSLRSEDTAMYYCARRPEYAMDYWGQGTSVTVSS
VL: LVQHQPVSSYLAASPGETVTINCRASKSISKYLAWYQEKPGKTNKLLIYSGSTFQSGFPSGFSGSGSGTDFTLTVSSLEPEDFAIYYCQQHNEYPYVTFGGGTKLEIKR
B1 returned a titer (dilution factor (1:x) from 1 mg/mL) of 1.28e+06.
